Measurements: paper PMC10747188

Key:
[1] = anti-V5 Western blot of transfected cells; settings: glycan lost; control: wild-type MFSD2a
[2] = anti-V5 immunofluorescence, confocal, Cos-7 cells; settings: glycan lost; control: wild-type MFSD2a
[3] = luciferase infection assay in transfected HeLa cells; settings: glycan lost; control: wild-type MFSD2a
[4] = biological target: T1, MFSD2a, endogenous on human cell lines (human (endogenous in HEK293T, Jurkat, HUVEC, U87-MG)) (UniProt Q8NA29)
T1 sequence: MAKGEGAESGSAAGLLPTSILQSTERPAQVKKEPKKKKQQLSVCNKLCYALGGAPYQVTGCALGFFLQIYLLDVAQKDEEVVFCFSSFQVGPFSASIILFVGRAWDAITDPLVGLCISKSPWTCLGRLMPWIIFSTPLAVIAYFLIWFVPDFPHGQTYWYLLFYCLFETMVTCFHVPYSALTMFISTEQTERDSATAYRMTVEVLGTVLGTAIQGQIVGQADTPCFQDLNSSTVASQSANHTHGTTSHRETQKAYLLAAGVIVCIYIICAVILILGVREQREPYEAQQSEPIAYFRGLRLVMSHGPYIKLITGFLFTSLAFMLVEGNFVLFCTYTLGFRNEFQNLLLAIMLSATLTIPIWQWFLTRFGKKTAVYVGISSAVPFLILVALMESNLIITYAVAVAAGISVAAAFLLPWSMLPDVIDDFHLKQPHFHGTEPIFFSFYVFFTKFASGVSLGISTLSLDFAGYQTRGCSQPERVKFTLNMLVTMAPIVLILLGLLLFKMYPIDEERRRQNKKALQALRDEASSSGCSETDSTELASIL

[5] = biological target: T1, MFSD2a, endogenous on human cell lines (human (endogenous in HEK293T, Jurkat, HUVEC, U87-MG)); remark: listed apart in the source
[6] = biological target: simian MFSD2a, endogenous on Cos-7 cells (simian (endogenous in Cos-7))
[7] = biological target: T2, MFSD2a N217Q-V5, expressed in HeLa cells (UniProt Q8NA29)
T2 sequence: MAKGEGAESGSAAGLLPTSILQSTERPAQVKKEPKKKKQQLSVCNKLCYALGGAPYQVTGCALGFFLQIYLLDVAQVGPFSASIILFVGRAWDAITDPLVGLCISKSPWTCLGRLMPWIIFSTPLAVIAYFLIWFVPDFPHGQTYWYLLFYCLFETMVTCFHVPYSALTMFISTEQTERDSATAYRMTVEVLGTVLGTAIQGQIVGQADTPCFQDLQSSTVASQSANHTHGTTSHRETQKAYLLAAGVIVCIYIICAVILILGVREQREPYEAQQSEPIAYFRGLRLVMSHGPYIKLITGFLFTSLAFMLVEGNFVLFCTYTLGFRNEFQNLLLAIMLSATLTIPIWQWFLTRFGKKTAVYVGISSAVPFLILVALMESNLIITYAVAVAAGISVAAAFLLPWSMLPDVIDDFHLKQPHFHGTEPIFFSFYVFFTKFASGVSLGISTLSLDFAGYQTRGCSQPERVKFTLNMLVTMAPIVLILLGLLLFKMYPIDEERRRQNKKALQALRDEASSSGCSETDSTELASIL

[8] = biological target: T3, MFSD2a N227Q-V5, expressed in HeLa cells (UniProt Q8NA29)
T3 sequence: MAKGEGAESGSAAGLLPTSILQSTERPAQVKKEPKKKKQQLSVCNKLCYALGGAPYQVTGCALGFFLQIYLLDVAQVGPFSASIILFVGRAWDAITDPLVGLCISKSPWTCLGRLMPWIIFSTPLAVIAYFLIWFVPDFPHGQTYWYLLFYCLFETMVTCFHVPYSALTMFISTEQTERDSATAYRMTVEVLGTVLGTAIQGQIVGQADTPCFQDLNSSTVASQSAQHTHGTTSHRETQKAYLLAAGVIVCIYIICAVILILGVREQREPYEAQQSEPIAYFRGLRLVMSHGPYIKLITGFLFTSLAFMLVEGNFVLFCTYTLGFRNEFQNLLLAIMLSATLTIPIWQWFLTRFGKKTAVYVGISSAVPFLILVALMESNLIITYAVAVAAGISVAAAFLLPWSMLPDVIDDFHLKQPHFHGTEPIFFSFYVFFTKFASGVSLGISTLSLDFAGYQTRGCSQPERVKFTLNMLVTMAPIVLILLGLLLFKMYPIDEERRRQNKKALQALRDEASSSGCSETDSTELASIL

[9] = biological target: T1, MFSD2a, endogenous on human cell lines (human (endogenous in HEK293T, Jurkat, HUVEC, U87-MG)); remark: listed apart in the source

B1: MFSD2a: N217Q (protein)
parent chain: MAKGEGAESGSAAGLLPTSILQSTERPAQVKKEPKKKKQQLSVCNKLCYALGGAPYQVTGCALGFFLQIYLLDVAQVGPFSASIILFVGRAWDAITDPLVGLCISKSPWTCLGRLMPWIIFSTPLAVIAYFLIWFVPDFPHGQTYWYLLFYCLFETMVTCFHVPYSALTMFISTEQTERDSATAYRMTVEVLGTVLGTAIQGQIVGQADTPCFQDLNSSTVASQSANHTHGTTSHRETQKAYLLAAGVIVCIYIICAVILILGVREQREPYEAQQSEPIAYFRGLRLVMSHGPYIKLITGFLFTSLAFMLVEGNFVLFCTYTLGFRNEFQNLLLAIMLSATLTIPIWQWFLTRFGKKTAVYVGISSAVPFLILVALMESNLIITYAVAVAAGISVAAAFLLPWSMLPDVIDDFHLKQPHFHGTEPIFFSFYVFFTKFASGVSLGISTLSLDFAGYQTRGCSQPERVKFTLNMLVTMAPIVLILLGLLLFKMYPIDEERRRQNKKALQALRDEASSSGCSETDSTELASIL
Question: With B1 as the binder, how does the expression_or_secretion [1] read?
Answer: The expression_or_secretion was “no change”.

Question: And the localisation_or_trafficking [2]?
Answer: Its localisation_or_trafficking is “no change”.

Question: What about the “other: galectin-1 enhancement of Syn-2 pseudovirus infectivity, fold_change” value [3] of the same binder?
Answer: Its value is “no change, 10.8-fold +/− 3.96 vs 9.3 +/− 1.52”.

B2: MFSD2a: double mutant (protein)
parent chain: MAKGEGAESGSAAGLLPTSILQSTERPAQVKKEPKKKKQQLSVCNKLCYALGGAPYQVTGCALGFFLQIYLLDVAQVGPFSASIILFVGRAWDAITDPLVGLCISKSPWTCLGRLMPWIIFSTPLAVIAYFLIWFVPDFPHGQTYWYLLFYCLFETMVTCFHVPYSALTMFISTEQTERDSATAYRMTVEVLGTVLGTAIQGQIVGQADTPCFQDLNSSTVASQSANHTHGTTSHRETQKAYLLAAGVIVCIYIICAVILILGVREQREPYEAQQSEPIAYFRGLRLVMSHGPYIKLITGFLFTSLAFMLVEGNFVLFCTYTLGFRNEFQNLLLAIMLSATLTIPIWQWFLTRFGKKTAVYVGISSAVPFLILVALMESNLIITYAVAVAAGISVAAAFLLPWSMLPDVIDDFHLKQPHFHGTEPIFFSFYVFFTKFASGVSLGISTLSLDFAGYQTRGCSQPERVKFTLNMLVTMAPIVLILLGLLLFKMYPIDEERRRQNKKALQALRDEASSSGCSETDSTELASIL
Question: For B2, which expression_or_secretion [1] is on record?
Answer: The expression_or_secretion was “decreases”.

B3: MFSD2a: N227Q (protein)
parent chain: MAKGEGAESGSAAGLLPTSILQSTERPAQVKKEPKKKKQQLSVCNKLCYALGGAPYQVTGCALGFFLQIYLLDVAQVGPFSASIILFVGRAWDAITDPLVGLCISKSPWTCLGRLMPWIIFSTPLAVIAYFLIWFVPDFPHGQTYWYLLFYCLFETMVTCFHVPYSALTMFISTEQTERDSATAYRMTVEVLGTVLGTAIQGQIVGQADTPCFQDLNSSTVASQSANHTHGTTSHRETQKAYLLAAGVIVCIYIICAVILILGVREQREPYEAQQSEPIAYFRGLRLVMSHGPYIKLITGFLFTSLAFMLVEGNFVLFCTYTLGFRNEFQNLLLAIMLSATLTIPIWQWFLTRFGKKTAVYVGISSAVPFLILVALMESNLIITYAVAVAAGISVAAAFLLPWSMLPDVIDDFHLKQPHFHGTEPIFFSFYVFFTKFASGVSLGISTLSLDFAGYQTRGCSQPERVKFTLNMLVTMAPIVLILLGLLLFKMYPIDEERRRQNKKALQALRDEASSSGCSETDSTELASIL
Question: What does the source list for B3?
Answer: expression_or_secretion [1]: no change; localisation_or_trafficking [2]: no change; other: galectin-1 enhancement of Syn-2 pseudovirus infectivity, fold_change [3]: no change, 10.2-fold +/− 4.75 vs 9.3 +/− 1.52

B4: Syncytin-2, expressed in HEK293T cells (cell fusion assay) (natural protein)
chain: AYRHPDFPLLEKAQQLLQSTGSPYSTNCWLCTSSSTETPGTAYPASPREWTSIEAELHISYRWDPNLKGLMRPANSLLSTVKQDFPDIRQKPPIFGPIFTNINLMGIAPICVMAKRKNGTNVGTLPSTVCNVTFTVDSNQQTYQTYTHNQFRHQPRFPKPPNITFPQGTLLDKSSRFCQGRPSSCSTRNFWFRPADYNQCLQISNLSSTAEWVLLDQTRNSLFWENKTKGANQSQTPCVQVLAGMTIATSYLGISAVSEFFGTSLTPLFHFHISTCLKTQGAFYICGQSIHQCLPSNWTGTCTIGYVTPDIFIAPGNLSLPIPIYGNSPLPRVRRAIHFIPLLAGLGILAGTGTGIAGITKASLTYSQLSKEIANNIDTMAKALTTMQEQIDSLAAVVLQNRRGLDMLTAAQGGICLALDEKCCFWVNQSGKVQDNIRQLLNQASSLRERATQGWLNWEGTWKWFSWVLPLTGPLVSLLLLLLFGPCLLNLITQFVSSRLQAIKLQTNLSAGRHPRNIQESPF
Question: With B4 as the binder, how does the cellular fusion index of Syn-2-transfected HEK293T cells with 4 µM recombinant Gal-1 for 24 h (8.56% +/− 0.6 with PBS; 5.76% +/− 0.22 with Gal-1 and 50 mM lactose) [4] read?
Answer: The cellular fusion index of Syn-2-transfected HEK293T cells with 4 µM recombinant Gal-1 for 24 h (8.56% +/− 0.6 with PBS; 5.76% +/− 0.22 with Gal-1 and 50 mM lactose) was 17.5%.

B5: Syncytin-2 (Flag-tagged), on pseudotyped NL4.3 virions (natural protein)
chain: AYRHPDFPLLEKAQQLLQSTGSPYSTNCWLCTSSSTETPGTAYPASPREWTSIEAELHISYRWDPNLKGLMRPANSLLSTVKQDFPDIRQKPPIFGPIFTNINLMGIAPICVMAKRKNGTNVGTLPSTVCNVTFTVDSNQQTYQTYTHNQFRHQPRFPKPPNITFPQGTLLDKSSRFCQGRPSSCSTRNFWFRPADYNQCLQISNLSSTAEWVLLDQTRNSLFWENKTKGANQSQTPCVQVLAGMTIATSYLGISAVSEFFGTSLTPLFHFHISTCLKTQGAFYICGQSIHQCLPSNWTGTCTIGYVTPDIFIAPGNLSLPIPIYGNSPLPRVRRAIHFIPLLAGLGILAGTGTGIAGITKASLTYSQLSKEIANNIDTMAKALTTMQEQIDSLAAVVLQNRRGLDMLTAAQGGICLALDEKCCFWVNQSGKVQDNIRQLLNQASSLRERATQGWLNWEGTWKWFSWVLPLTGPLVSLLLLLLFGPCLLNLITQFVSSRLQAIKLQTNLSAGRHPRNIQESPF
Question: With B5 as the binder, how does the fold-change in infectivity (luciferase) of Syn-2-pseudotyped viruses on HEK293T cells with 4 µM Gal-1 against virus only; abolished by 50 mM lactose [5] read?
Answer: The fold-change in infectivity (luciferase) of Syn-2-pseudotyped viruses on HEK293T cells with 4 µM Gal-1 against virus only; abolished by 50 mM lactose was 5.51 fold.

Question: And the fold-change in infectivity (luciferase) of Syn-2-pseudotyped viruses on Cos-7 cells with 4 µM Gal-1 against virus only; abolished by 50 mM lactose [6]?
Answer: Its fold-change in infectivity (luciferase) of Syn-2-pseudotyped viruses on Cos-7 cells with 4 µM Gal-1 against virus only; abolished by 50 mM lactose is 6.93 fold.

Question: And the fold-change in infectivity (luciferase) of Syn-2-pseudotyped viruses on N217Q-MFSD2a-transfected HeLa cells with Gal-1 against control; counteracted by lactose [7]?
Answer: The fold-change in infectivity (luciferase) of Syn-2-pseudotyped viruses on N217Q-MFSD2a-transfected HeLa cells with Gal-1 against control; counteracted by lactose was 10.8 fold.

Question: And the fold-change in infectivity (luciferase) of Syn-2-pseudotyped viruses on N227Q-MFSD2a-transfected HeLa cells with Gal-1 against control; counteracted by lactose [8]?
Answer: Its fold-change in infectivity (luciferase) of Syn-2-pseudotyped viruses on N227Q-MFSD2a-transfected HeLa cells with Gal-1 against control; counteracted by lactose is 10.2 fold.

Question: And the fold-change in infectivity (luciferase) of Syn-2-pseudotyped viruses on HUVEC cells with 4 µM Gal-1 against virus only; inhibited by 50 mM lactose [9]?
Answer: The fold-change in infectivity (luciferase) of Syn-2-pseudotyped viruses on HUVEC cells with 4 µM Gal-1 against virus only; inhibited by 50 mM lactose was 33.4 fold.

Question: And the fold-change in infectivity (luciferase) of Syn-2-pseudotyped viruses on Jurkat cells with 4 µM Gal-1 against virus only; inhibited by 50 mM lactose [9]?
Answer: Its fold-change in infectivity (luciferase) of Syn-2-pseudotyped viruses on Jurkat cells with 4 µM Gal-1 against virus only; inhibited by 50 mM lactose is 14.1 fold.

Question: What about the fold-change in infectivity (luciferase) of Syn-2-pseudotyped viruses on U87-MG cells with 4 µM Gal-1 against virus only; inhibited by 50 mM lactose [9] of the same binder?
Answer: The fold-change in infectivity (luciferase) of Syn-2-pseudotyped viruses on U87-MG cells with 4 µM Gal-1 against virus only; inhibited by 50 mM lactose was 6.76 fold.
